Patent publication US20200199212A1

Legend:
[1] = target: cynomolgus LPL on HEK293 cells (cynomolgus); assay: cell-based or functional assay
[2] = target: rat LPL on HEK293 cells (rat) (UniProt Q06000); assay: cell-based or functional assay
rat LPL on HEK293 cells (rat), sequence (Q06000 28-474): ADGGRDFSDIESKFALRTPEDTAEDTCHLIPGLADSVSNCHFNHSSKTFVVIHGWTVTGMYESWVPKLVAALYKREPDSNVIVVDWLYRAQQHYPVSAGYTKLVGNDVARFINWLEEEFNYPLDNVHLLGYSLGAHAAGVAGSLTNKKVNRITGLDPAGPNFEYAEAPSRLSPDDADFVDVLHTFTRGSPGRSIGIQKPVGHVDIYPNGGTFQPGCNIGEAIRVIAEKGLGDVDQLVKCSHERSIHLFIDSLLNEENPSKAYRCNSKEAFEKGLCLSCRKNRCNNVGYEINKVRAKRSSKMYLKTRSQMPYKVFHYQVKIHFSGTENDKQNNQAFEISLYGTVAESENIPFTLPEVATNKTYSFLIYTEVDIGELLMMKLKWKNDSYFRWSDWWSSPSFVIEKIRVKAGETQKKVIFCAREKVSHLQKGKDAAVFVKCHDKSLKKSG

IC80 concentration (inhibition of LPL activity) [1] | IC80 concentration (inhibition of LPL activity) [2] | Substance
380 pM |  | cyno ANGPTL3/8 complex (from UniProt A0A2K5UDC5 17-460)
 | 810 pM | rat ANGPTL3/8 complex (from UniProt F7FHP0 17-446)
